Source: article PMC3240630
Where two headings read alike, the source gives them in different places. Values belong to the substance of their own block, whether it stands above or below them.

Assays:
monoubiquitin [1] = biological target: monoubiquitin (UniProt P0CG48); conditions: cited from earlier work
monoubiquitin [2] = biological target: monoubiquitin (UniProt P0CG48); conditions: cited from earlier work; remark: listed apart in the source
monoubiquitin [3] = biological target: monoubiquitin (UniProt P0CG48); conditions: cited from earlier work; remark: listed apart in the source
monoubiquitin [4] = biological target: monoubiquitin (UniProt P0CG48); conditions: cited from earlier work; remark: listed apart in the source
monoubiquitin [5] = biological target: monoubiquitin (UniProt P0CG48); conditions: cited from earlier work; remark: listed apart in the source
[6] = biological target: XIAP-UBA-RING double-domain construct (human); assay: SEC; analytical size-exclusion chromatography of 15N-XIAP-UBA-RING at 0.18 mM (methods in Methods S1)
monoubiquitin [7] = biological target: monoubiquitin (UniProt P0CG48); conditions: cited from earlier work; remark: listed apart in the source
monoubiquitin [8] = biological target: monoubiquitin (UniProt P0CG48); conditions: cited from earlier work; remark: listed apart in the source

Sequence of Dsk2 UBA (P48510 324-373): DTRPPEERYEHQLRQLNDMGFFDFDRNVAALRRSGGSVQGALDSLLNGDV
Sequence of Cbl-b UBA (Q13191 928-973): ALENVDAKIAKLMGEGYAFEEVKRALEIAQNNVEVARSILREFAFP
Sequence of cIAP-1 (Q13490 whole entry): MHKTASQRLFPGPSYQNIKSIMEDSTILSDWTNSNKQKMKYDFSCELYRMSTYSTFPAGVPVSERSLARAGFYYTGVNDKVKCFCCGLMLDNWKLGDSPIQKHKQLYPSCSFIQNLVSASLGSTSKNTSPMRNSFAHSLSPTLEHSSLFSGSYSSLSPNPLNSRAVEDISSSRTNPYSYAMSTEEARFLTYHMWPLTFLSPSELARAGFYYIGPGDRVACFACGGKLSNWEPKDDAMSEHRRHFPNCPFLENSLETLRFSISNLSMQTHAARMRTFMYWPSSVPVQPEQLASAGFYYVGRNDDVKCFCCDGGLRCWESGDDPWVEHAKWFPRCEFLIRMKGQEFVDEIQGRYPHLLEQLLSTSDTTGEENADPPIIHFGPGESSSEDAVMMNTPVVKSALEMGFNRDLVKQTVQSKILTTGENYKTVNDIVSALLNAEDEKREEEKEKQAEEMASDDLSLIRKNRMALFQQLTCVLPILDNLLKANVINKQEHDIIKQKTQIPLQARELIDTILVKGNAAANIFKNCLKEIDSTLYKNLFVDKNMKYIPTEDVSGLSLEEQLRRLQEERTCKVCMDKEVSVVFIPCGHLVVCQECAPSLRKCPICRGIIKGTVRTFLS
Sequence of Mud1 UBA (Q10256 291-332): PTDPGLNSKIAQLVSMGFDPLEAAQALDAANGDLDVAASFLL
Sequence of hHR23A UBA2 (P54725 315-361): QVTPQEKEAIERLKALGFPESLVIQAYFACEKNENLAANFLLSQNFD
Sequence of Swa2 UBA (Q06677 137-183): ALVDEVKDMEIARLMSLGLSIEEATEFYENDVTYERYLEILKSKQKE
Sequence of Ede1 UBA (P34216 1335-1381): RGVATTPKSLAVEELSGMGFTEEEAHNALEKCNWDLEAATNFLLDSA

Substance: hHR23A UBA2 (from UniProt P54725)
- Kd (monoubiquitin [1]): 400 µM

Substance: Ede1 UBA (from UniProt P34216)
- Kd (monoubiquitin [2]): 83 µM

Substance: cIAP-1 (from UniProt Q13490)
- Kd (monoubiquitin [3]): 56 µM

Substance: Dsk2 UBA (from UniProt P48510)
- Kd (monoubiquitin [4]): 14.8 µM

Substance: Mud1 UBA (from UniProt Q10256)
- Kd (monoubiquitin [5]): 350 µM

- stoichiometry N [6]: 2
Substance: XIAP-UBA-RING double-domain construct (domain or fragment)

Substance: Swa2 UBA (from UniProt Q06677)
- Kd (monoubiquitin [7]): 535 µM

Substance: Cbl-b UBA (from UniProt Q13191)
- Kd (monoubiquitin [8]): 53.1 µM
